Laboratory results: article PMC5538626, “Structural and functional analysis of the GABARAP interaction motif (GIM)” (EMBO Reports, 2017)
pKd: −log10 of the molar value.

Assays:
[1] = molecular target: GABARAP (for ITC and NMR) (human) (UniProt O95166); assay: ITC; peptide 0.4 mM titrated into 0.020 mM LC3/GABARAP protein in 26 steps, 25°C; 50 mM Na2HPO4, 100 mM NaCl, pH 7.0; one-site model
[2] = molecular target: LC3B (for ITC and NMR) (human) (UniProt Q9GZQ8); assay: as above

Chain of GABARAP (for ITC and NMR) (human) (O95166 whole entry): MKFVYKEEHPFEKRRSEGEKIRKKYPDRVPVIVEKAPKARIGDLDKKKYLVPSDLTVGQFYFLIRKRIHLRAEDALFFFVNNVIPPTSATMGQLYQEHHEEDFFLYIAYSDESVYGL

Row | Substance | Ka [1] | pKd [1] | dH [1] | stoichiometry N [1] | Ka [2] | pKd [2] | dH [2] | stoichiometry N [2]
1 | PLEKHM1‐LIR VNV‐CIL peptide (ITC) (from UniProt Q9Y4G2 629-642) | 1.13e+07 M⁻¹ | 7.05 | -9.2 kcal/mol | 1.07 | 3.03e+06 M⁻¹ | 6.48 | -7.9 kcal/mol | 1.06
2 | PLEKHM1‐LIR N637G peptide (ITC) (from UniProt Q9Y4G2 629-642) | 130000 M⁻¹ | 5.11 | -6.7 kcal/mol | 1.17 | 20000 M⁻¹ | 4.30 | -1.4 kcal/mol | –
